Measurements: the supplement of paper PMC7877785
± gives the uncertainty stated by the source.

Assay: self-splicing fitness, log relative to wild type (ln ratio); higher = more splicing; Tetrahymena group I intron in knt gene, E. coli kanamycin selection, DiMSum; sequences stand for … in CUCUCU…GGAGGGAAAAGUUAUCAGGCAUGCACCUGGUAGCUAGUCUUUAAACCAAUAGAUUGCAUCGGUUUAAAAGGCAAGACCGUCAAAUUGCGGGAAAGGGGUCAACAGCCGUUCAGUACCAAGUCUCAGGGGAAACUUUGAGAUGGCCUUGCAAAGGGUAUGGUAAUAAGCUGACGGACAUGGUCCUAACCACGCAGCCAAGUCCUAAGUCAACAGAUCUUCUGUUGAUAUGGAUGCAGUUCACAGACUAAAUGUCGGUCGGGGAAGAUGUAUUCUUCUCAUAAGAUAUAGUCGGACCUCUCCUUAAUGGGAGCUAGCGGAUGAAGUGAUGCAACACUGGAGCCGCUGGGAACUAAUUUGUAUGCGAAAGUAUAUUGAUUAGUUUUGGAGUACUCGUGGUCG
Procedure, shortened: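 Six replicate transformations of E. coli BL21(DE3) with a pET-22b(+) library were grown overnight at 37°C or 30°C. The library randomised all eight P1ex-region intron nucleotides, the intron lying in the knt kanamycin-resistance gene, and plates were LB agar with or without 25 μg/mL kanamycin plus 100 μg/mL carbenicillin, 50 μM IPTG and 0.2% rhamnose. Pooled colonies were amplicon-sequenced on an Illumina HiSeq 2500, and fitness is the DiMSum error-weighted combination of wild-type-normalised replicate fold changes, kanamycin versus none.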

Row | Sequence | self-splicing fitness (ln) (30 °C) | self-splicing fitness (ln) (37 °C)
1 | CUGCAGCAAUAUUACGUACC | -3.22 ± 0.19 | -2.68 ± 0.44
2 | UGGUAGCAAUAUUACGAUAA | -1.45 ± 0.21 | -0.6 ± 0.24
3 | UAUCAGCAAUAUUACGUUCG | -0.844 ± 0.085 | 0.113 ± 0.11
4 | UCAAAGCAAUAUUACGAUAA | -1.43 ± 0.11 | -0.335 ± 0.13
5 | GCUAAGCAAUAUUACGCCUC | -1.89 ± 0.16 | -0.286 ± 0.22
6 | AAUAAGCAAUAUUACGAUCU | 0.041 ± 0.069 | 0.493 ± 0.087
7 | GUUCAGCAAUAUUACGGGGA | -4.6 ± 0.46 | -2.56 ± 0.22
8 | AGUCAGCAAUAUUACGCGAC | -2.59 ± 0.26 | -3.14 ± 0.35
9 | CUUAAGCAAUAUUACGAUCG | -0.53 ± 0.082 | 0.874 ± 0.12
10 | AGUCAGCAAUAUUACGGUUG | -2.76 ± 0.12 | -2.8 ± 0.17
11 | GAAUAGCAAUAUUACGCUUA | -1.5 ± 0.17 | -0.146 ± 0.17
12 | GGUUAGCAAUAUUACGGUUG | -2.73 ± 0.32 | -1.57 ± 0.33
13 | CUUGAGCAAUAUUACGCUGA | -2.33 ± 0.25 | -1.9 ± 0.23
14 | GGCUAGCAAUAUUACGGCAG | -1.12 ± 0.23 | -0.728 ± 0.38
15 | GGGGAGCAAUAUUACGAAAC | -3.15 ± 0.42 | -0.654 ± 0.3
16 | GUUCAGCAAUAUUACGGUGA | -2.66 ± 0.17 | -1.08 ± 0.13
17 | UCCCAGCAAUAUUACGGGGA | -3.53 ± 0.17 | -2.43 ± 0.16
18 | GCGUAGCAAUAUUACGAUGC | -3.71 ± 0.32 | -1.39 ± 0.27
19 | UUAAAGCAAUAUUACGUCUA | 0.0872 ± 0.095 | 0.626 ± 0.11
20 | GCCAAGCAAUAUUACGCAUU | -1.35 ± 0.072 | -0.715 ± 0.081
21 | CCACAGCAAUAUUACGCUCU | -4.07 ± 0.17 | -2.1 ± 0.16
22 | CAUAAGCAAUAUUACGUACC | -1.97 ± 0.3 | 
23 | CCGGAGCAAUAUUACGACUA | -2.18 ± 0.45 | -1.88 ± 0.27
24 | CAGUAGCAAUAUUACGGACG | -0.216 ± 0.11 | 0.702 ± 0.16

Row | Sequence | self-splicing fitness (ln) (30 °C) | self-splicing fitness (ln) (37 °C)
25 | UACAAGCAAUAUUACGUGCG | -1.05 ± 0.054 | -0.158 ± 0.075
26 | ACCAAGCAAUAUUACGCUCG | -2.2 ± 0.12 | -1.32 ± 0.13
27 | AGCCAGCAAUAUUACGUCUU | -1.23 ± 0.072 | -0.744 ± 0.089
28 | UUCAAGCAAUAUUACGUCCG | -1.33 ± 0.095 | -0.121 ± 0.14
29 | CAGCAGCAAUAUUACGGGAC | -3.71 ± 0.22 | -2.46 ± 0.27
30 | AGACAGCAAUAUUACGGUUA | -0.253 ± 0.082 | -0.109 ± 0.079
31 | UUUAAGCAAUAUUACGUCUA | -0.606 ± 0.085 | -0.214 ± 0.1
32 | GCGGAGCAAUAUUACGAGCA |  | -0.82 ± 0.4
33 | AGUGAGCAAUAUUACGUGAC | -2.02 ± 0.35 | -2.39 ± 0.32
34 | ACCAAGCAAUAUUACGGCUC | -2.09 ± 0.07 | -0.63 ± 0.084
35 | UGACAGCAAUAUUACGGUCC | -0.746 ± 0.18 | -0.15 ± 0.23
36 | ACGCAGCAAUAUUACGUCGU | -3.77 ± 0.26 | -1.6 ± 0.21
37 | CGGUAGCAAUAUUACGAGAG | -3.4 ± 0.19 | -0.673 ± 0.11
38 | AUCGAGCAAUAUUACGGGUG | -3.28 ± 0.14 | -1.89 ± 0.12
39 | AUGAAGCAAUAUUACGGGGU | -2.79 ± 0.23 | -1.21 ± 0.17
40 | CCGGAGCAAUAUUACGCGCC | -1.89 ± 0.32 | 
41 | UCCAAGCAAUAUUACGGAAC |  | -3.52 ± 0.35
42 | GACUAGCAAUAUUACGGGUU | -3.92 ± 0.24 | -2.74 ± 0.27
43 | GUUCAGCAAUAUUACGGGCG | -1.57 ± 0.15 | -0.592 ± 0.15
44 | CUACAGCAAUAUUACGAGAC | -4.15 ± 0.2 | -2.59 ± 0.16
45 | UGACAGCAAUAUUACGUAUU | -3.43 ± 0.15 | -1.78 ± 0.11
46 | UCGAAGCAAUAUUACGGUCA | -1.83 ± 0.11 | -0.525 ± 0.12
47 | GAGCAGCAAUAUUACGUUCC | -3.51 ± 0.17 | -3.28 ± 0.21
48 | AGGUAGCAAUAUUACGUGAU | -2.479 ± 0.016 | -1.53 ± 0.034
